This is an account of results in paper PMC9786777, “Phosphorylation of Thr9 Affects the Folding Landscape of the N-Terminal Segment of Human AGT Enhancing Protein Aggregation of Disease-Causing Mutants” (Molecules, 2022).

Changes are numbered by the printed parent chain. In names and notes the source's numbering stands.

The target in data set [1] is alanine:glyoxylate aminotransferase (AGT) NTT, 1-21 (UniProt P21549). Put plainly: NMR translational diffusion (DOSY), self-association. Conditions: sites T9.
Data set [2] concerns the molecule itself. Put plainly: dynamic light scattering; holo-AGT as purified, 10 µM (in subunit), Na-HEPES 20 mM NaCl 200 mM pH 7.4, 25 °C; hydrodynamic radius compared with the dimer of the crystal structure.

As to “alanine:glyoxylate aminotransferase (AGT) NTT, 1-21 (from UniProt P21549) NTT-AGT T9E-P11L peptide”, the “other: hydrodynamic radius” value in data set [1] (reference: NTT-AGT P11L peptide) is recorded as “none in both; reference 12 ± 2”.

Turning to “alanine:glyoxylate aminotransferase (AGT) NTT, 1-21 (from UniProt P21549) NTT-AGT T9E peptide”, the “other: hydrodynamic radius” value in data set [1] (reference: NTT-AGT WT peptide) is “none in both; reference 12 ± 2”.

B1: alanine:glyoxylate aminotransferase (AGT) WT, holo-protein (enzyme, human, UniProt P21549 1-392, looked up)
chain: MASHKLLVTPPKALLKPLSIPNQLLLGPGPSNLPPRIMAAGGLQMIGSMSKDMYQIMDEIKEGIQYVFQTRNPLTLVISGSGHCALEAALVNVLEPGDSFLVGANGIWGQRAVDIGERIGARVHPMTKDPGGHYTLQEVEEGLAQHKPVLLFLTHGESSTGVLQPLDGFGELCHRYKCLLLVDSVASLGGTPLYMDRQGIDILYSGSQKALNAPPGTSLISFSDKAKKKMYSRKTKPFSFYLDIKWLANFWGCDDQPRMYHHTIPVISLYSLRESLALIAEQGLENSWRQHREAAAYLHGRLQALGLQLFVKDPALRLPTVTTVAVPAGYDWRDIVSYVIDHFDIEIMGGLGPSTGKVLRIGLLGCNATRENVDRVTEALRAALQHCPKKKL
modifications: PLP covalently bound to K209 (holo-protein)
notes: alanine:glyoxylate aminotransferase (AGT), human, 392 residues; also called holo-AGT
On to B1, for which, in data set [2], the binding result is listed as “binds”.

B2: AGT WT with the T9E mutation, holo-protein (enzyme, human, UniProt P21549 1-392, looked up)
chain: B1 chain with T9E
modifications: PLP covalently bound to K209 (holo-protein)
notes: alanine:glyoxylate aminotransferase (AGT), human, 392 residues, phosphomimetic T9E; also called T9E (WT background)
On to B2, for which, in data set [2], the binding result is on record as “binds”.

B3: AGT WT with the T9A mutation, holo-protein (enzyme, human, UniProt P21549 1-392, looked up)
chain: B1 chain with T9A
modifications: PLP covalently bound to K209 (holo-protein)
notes: alanine:glyoxylate aminotransferase (AGT), human, 392 residues, control mutation T9A; also called T9A (WT background)
As for B3, the binding result in data set [2] was “binds”.
